Assay results published in patent publication US20200347130A1 (JIANGSU HENGRUI MEDICINE, published 2020).
Numbering of substitutions follows the chain as printed.

T1: Biotinylated CD96 antigen (human, UniProt P40200-2 22-503, limits assumed, biotinylated)
T1 sequence (looked up): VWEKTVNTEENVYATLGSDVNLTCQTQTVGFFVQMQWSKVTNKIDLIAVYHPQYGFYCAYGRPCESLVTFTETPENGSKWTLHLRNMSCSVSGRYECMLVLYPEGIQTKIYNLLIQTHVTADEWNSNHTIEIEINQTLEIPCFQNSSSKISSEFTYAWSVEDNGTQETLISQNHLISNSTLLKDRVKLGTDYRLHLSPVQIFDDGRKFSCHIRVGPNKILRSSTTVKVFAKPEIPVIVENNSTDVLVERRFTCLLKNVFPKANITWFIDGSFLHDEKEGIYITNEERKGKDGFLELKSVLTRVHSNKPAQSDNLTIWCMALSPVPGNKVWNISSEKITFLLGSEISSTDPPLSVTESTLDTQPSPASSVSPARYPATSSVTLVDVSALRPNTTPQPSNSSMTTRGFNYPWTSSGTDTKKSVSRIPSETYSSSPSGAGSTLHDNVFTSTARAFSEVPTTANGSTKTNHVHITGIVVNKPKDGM

T2: CD96 epitope peptide #10 (149-170) (human)
T2 peptide: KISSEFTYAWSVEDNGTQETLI

T3: CD96 epitope peptide #9 (137-156) (human)
T3 peptide: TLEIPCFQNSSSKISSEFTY

T4: CD96 epitope peptide #4 (62-81) (human)
T4 peptide: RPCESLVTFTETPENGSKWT

T5: CD96 epitope peptide #18 (265-284) (human)
T5 peptide: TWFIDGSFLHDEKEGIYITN

T6: CD96 epitope peptide #21 (310-329) (human)
T6 peptide: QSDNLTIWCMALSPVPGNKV

T7: CD96 epitope peptide #19 (280-299) (human)
T7 peptide: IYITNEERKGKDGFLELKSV

B1: h1722-010 (antibody, V domains shown)
VH: EVQLVQSGAEVKKPGSSVKVSCKASGGTFSDYWMHWVRQAPGQGLEWIGMLHPNSGTTSFNEKFKIRVTITADKSTSTAYMELSSLRSEDTAVYYCASDYSGPFAYWGQGTLVTVSS
VL: DIQLTQSPSSLSASVGDRVTITCSASSSVNYIHWYQQKPGKAPKRWIFDTSKLASGVPSRFSGSGSGTDYTLTISSLQPEDFATYYCQQWRSNPLTFGQGTKLEIK
notes: Only variable regions are tied to this name; also called M722-010
B2: h1719-014 (antibody, V domains shown)
VH: EVTLKESGPVLVKPTETLTLTCTVSGFSLSSYGVSWVRQPPGKGLEWLGVIWGDGNTNYHSVLISRLTISKDTSKSQVVLTLTNMDPVDTATYYCAKNYYYGSRYGYPLDYWGQGTTVTVSS
VL: DIQMTQSPSSVSASVGDRVTITCKATQDVGTAVAWYQQKPGKSPKLLIYWASTRHTGVPERFSGSGSGTDFTLTISSLQPEDFATYFCQQYGSSVLTFGGGTKVEIK
notes: Only variable regions are tied to this name; also called M719-014
B3: h1721-003 (antibody, V domains shown)
VH: B2 VH with S35N, V37I, G44A, N56S, V62A, Y100F, P108A, L109M, Y111S
VL: DIQMTQSPSSLSASVGDRVTITCRASENIYSSLAWYQQKPGKAPKLLIYNAKTLIEGVPSRFSGSGSGTDFTLTISSLQPEDFATYYCQHHYGTPYTFGGGTKVEIK
notes: Only variable regions are tied to this name; also called M721-003
B4: h1718-012 (antibody, V domains shown)
VH: EVQLVQSGAEVKKPGASVKVSCKASGYTITDYNMNWVRQAPGQRLEWIGVINPSYGITDYNQNFKDRVTITVDTSASTAYMELSSLRSEDTAVYYCAIQLRLPGYFDVWGQGTTVTVSS
VL: DIQMTQSPSSLSASVGDRVTITCKASQDINQYLNWFQQKPGKAPKTLIYRANRLVDGVPSRFSGSGSGQDYTLTISSLQPEDFATYYCLKYDEFPYTFGGGTKVEIK
notes: Only variable regions are tied to this name
B5: ch1720 (antibody, human IgG4 S228P, kappa, V domains shown)
VH: EFQLQQSGPELVKPGASVKISCKASAYSLTDYNMNWVKQSNGKSLEWIGVINPSYGISSYNQKFKGKATLTVDQSSSTAYMHLNSLTSEDSAVYYCARQLRLPGYFDVWGTGTTVTVSS
VL: DIKMTQSPSSKNASLGERVTITCKASQDINSYLNWFQQKPGKSPKTLIYRASRLVDGVPSRFSGSGSGQDYSLTISSLEYEDMGIYYCLKYDEFPYTFGGGTKLEIKR
notes: also called chimeric antibody corresponding to m1720
B6: h1719-010 (antibody, V domains shown)
VH: B2 VH with N98Q, Y99N, L109I
VL: B2 VL with S43A, E60S, F87Y
notes: as for B4
B7: ch1719 (antibody, human IgG4 S228P, kappa, V domains shown)
VH: QVQLKESGPGLVAPSQSLSITCTVSGFSLISYGVSWVRQPPGKGLEWLGVIWGDGNTNYHSVLISRLSIRKDDSKSQVFLKLNSLQTDDTATYYCAKNNYYGSRYGYPMDYWGQGTSVTVSS
VL: DIVMTQSHKFMSTSVGDRVSITCKATQDVGTAVAWYQQKPGHSPKLLIYWASTRHTGVPERFTGSGSGTDFTLTIDNVQSEDLADYFCQQYGSSVLTFGAGTKVELRR
notes: also called chimeric antibody corresponding to m1719
B8: ch1721 (antibody, human IgG4 S228P, kappa, V domains shown)
VH: B7 VH with S35N, N56S, V62A, R70S, K81N, N99Y, Y100F, P108A, Y111S, T116I
VL: DIQMTQSPASLSAAVGETVTITCRASENIYSSLAWYQQKQGKSPQLLVYNAKTLIETVASRFSGSGSGTQYSLKINSLQPEDFGSFYCQHHYGTPYTFGGGTKLEIKR
notes: also called chimeric antibody corresponding to m1721

These binders were tested against T1, Biotinylated CD96 antigen (assay: competition ELISA, antibody B premixed with biotinylated CD96; competitor (coated antibody A): h1718-012).
Procedure: (§1) Competitive assays of different antibodies binding to CD96 protein were used to classify binding epitopes of the antibodies. The specific experimental methods are as follows:
(§2) Antibody A was diluted to a concentration of 2 μg/ml with PBS buffer (Shanghai Yuanpei Biotechnology Co., Ltd. Cat No. B320), pH 7.4, added to a 96-well microtiter plate (Corning, Cat No. CLS3590-100EA) at a volume of 50 μl/well, and coated at 4° C. overnight. After discarding the liquid, 250 μl/well of 5% skim milk (BD skim milk, Cat No. 232100) blocking solution diluted with PBS was added, and the plate was incubated at 37° C. for 3 hours. After blocking, the blocking solution was discarded, and the plate was washed 5 times with PBST buffer (pH 7.4 PBS containing 0.05% tween-20) and stored for later use. Antibody B was diluted to 40 μg/ml and 8 μg/ml with 1% BSA, and Biotinylated CD96 antigen was simultaneously diluted to 4 μg/mL. Subsequently, antibody B and antigen were mixed in a 1:1 volume ratio, pre-incubated at 37° C. for 45 minutes, added into the enzyme plate coated with antibody A, thus incubating the plate in an incubator at 37° C. for 1.5 hours. After incubation, the plate was washed for 5 times with PBST, and 50 μl/well of HRP-labeled streptavidin (Sigma, Cat No. 52438) diluted with sample dilution was added, followed by incubating the plate at 37° C. for 1 hour. After washing the plate 5 times with PBST, 50 μl/well of TMB chromogenic substrate (KPL, Cat No. 52-00-03) was added for color development, followed by adding 50 μl/well of 1M H₂SO₄ to stop the reaction. The absorption value was read at 450 nm with a NOVOStar microplate reader, and the OD value was used to determine whether A and B CD96 antibodies compete with each other. Antibodies that compete with each other fall into the same class of antibodies, otherwise belong to different classes of antibodies (see FIG. 3 and Table 18).

competition (percent) [%]	Binder
-3.5	B1
44.3	B2
73.6	B3
100	B4
94.4	B5

The binders below were run against T1, Biotinylated CD96 antigen (assay: competition ELISA, antibody B premixed with biotinylated CD96; competitor (coated antibody A): h1719-014).
Procedure: as §1, §2

competition (percent) [%]	Binder
8.5	B1
100	B2
96	B3
94.8	B4
92.3	B5

Each binder was assayed against T1, Biotinylated CD96 antigen (assay: competition ELISA: antibody B pre-incubated with biotinylated CD96 antigen, added to a plate coated with antibody A, HRP-streptavidin, OD450; competitor: coated h1719-014 (named by the legend paragraph 84)).
Procedure: as §1, §2

IC50 (read off the curve) [nM]	Binder
~0.4	B6
~0.4	B3
~0.4	B4
~1	B5

Target: T2, CD96 epitope peptide #10 (149-170)
Assay: peptide ELISA ('-' indicates no binding, table note)
Procedure: (§3) The epitopes recognized by anti-CD96 antibody were detected by the assay of binding the antibody to different polypeptide fragments of CD96 protein. The fragments of different polypeptides of the CD96 antigen were coated on the microtiter plate. The signal density after the antibody was added was used to judge the binding activity of the antibody and the polypeptide. The specific experimental method is as follows:
(§4) The polypeptides were diluted to a concentration of 20 μg/ml with PBS buffer (Shanghai Yuanpei Biotechnology Co., Ltd. Cat No. B320), pH 7.4, added to a 96-well microtiter plate (Corning, Cat No. CLS3590-100EA) at a volume of 50 μl/well, and coated at 4° C. overnight. After discarding the liquid, 250 μl/well of 5% skim milk (BD skim milk, Cat No. 232100) blocking solution diluted with PBS was added, and the plate was incubated in an incubator at 37° C. for 3 hours. After blocking, the blocking solution was discarded, and the plate was washed 5 times with PBST buffer (pH 7.4 PBS containing 0.05% tween-20). 50 μl/well of different concentrations of the antibodies to be tested (hybridoma purification antibody or humanized antibody) diluted with sample dilution was added, and the plate was incubated in an incubator at 37° C. for 2 hours. […] After washing the plate 5 times with PBST, 50 μl/well of TMB chromogenic substrate (KPL, Cat No. 52-00-03) was added, the plate was incubated at room temperature for 5-15 min, followed by adding 50 μl/well of 1M H₂SO₄ to stop the reaction. The absorption value was read at 450 nm with a microplate reader (Thermo Scientific MuLtiskan MK3), and the epitopes that CD96 antibody can recognize were analyzed.

binding result	Binder
no binding	B7
no binding	B8
no binding	B5

Target: T3, CD96 epitope peptide #9 (137-156)
Assay: as above
Procedure: as §3, §4

binding result	Binder
no binding	B7
no binding	B8
no binding	B5

Target: T4, CD96 epitope peptide #4 (62-81)
Assay: as above
Procedure: as §3, §4

binding result	Binder
no binding	B7
no binding	B8
no binding	B5

Target: T5, CD96 epitope peptide #18 (265-284)
Assay: as above
Procedure: as §3, §4

binding result	Binder
no binding	B7
no binding	B8
no binding	B5

Target: T6, CD96 epitope peptide #21 (310-329)
Assay: as above
Procedure: as §3, §4

binding result	Binder
no binding	B7
no binding	B8
no binding	B5

Target: T7, CD96 epitope peptide #19 (280-299)
Assay: as above
Procedure: as §3, §4

binding result	Binder
no binding	B7
no binding	B8
no binding	B5

Each binder was assayed against T1, Biotinylated CD96 antigen (assay: competition ELISA: antibody B pre-incubated with biotinylated CD96 antigen, added to a plate coated with antibody A, HRP-streptavidin, OD450; competitor: coated ch1720).
Procedure: as §1, §2

IC50 (read off the curve) [nM]	Binder
~0.5	B6
~0.4	B3
~0.5	B4
